Test results from the supplement of paper PMC7877785.
± gives the uncertainty stated by the source.

Assay: self-splicing fitness, log relative to wild type (ln ratio); higher = more splicing; Tetrahymena group I intron in knt gene, E. coli kanamycin selection, DiMSum; sequences stand for … in CUCUCU…GGAGGGAAAAGUUAUCAGGCAUGCACCUGGUAGCUAGUCUUUAAACCAAUAGAUUGCAUCGGUUUAAAAGGCAAGACCGUCAAAUUGCGGGAAAGGGGUCAACAGCCGUUCAGUACCAAGUCUCAGGGGAAACUUUGAGAUGGCCUUGCAAAGGGUAUGGUAAUAAGCUGACGGACAUGGUCCUAACCACGCAGCCAAGUCCUAAGUCAACAGAUCUUCUGUUGAUAUGGAUGCAGUUCACAGACUAAAUGUCGGUCGGGGAAGAUGUAUUCUUCUCAUAAGAUAUAGUCGGACCUCUCCUUAAUGGGAGCUAGCGGAUGAAGUGAUGCAACACUGGAGCCGCUGGGAACUAAUUUGUAUGCGAAAGUAUAUUGAUUAGUUUUGGAGUACUCGUGGUCG
How it was run: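 Colonies from six replicate transformations of E. coli BL21(DE3) were pooled and amplicon-sequenced on an Illumina HiSeq 2500. The library placed an intron with all eight P1ex-region nucleotides randomised inside the knt kanamycin-resistance gene on pET-22b(+), and cells grew overnight at 37°C or 30°C on LB agar with or without 25 μg/mL kanamycin (plus 100 μg/mL carbenicillin, 50 μM IPTG, 0.2% rhamnose). Fitness is the DiMSum error-weighted combination of wild-type-normalised replicate fold changes, kanamycin versus none.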

Row | Sequence | self-splicing fitness (ln) (30 °C) | self-splicing fitness (ln) (37 °C)
1 | CUCUAGCAAUAUUACGUCGA | -4.25 ± 0.42 | -0.879 ± 0.19
2 | CUCUAGCAAUAUUACGUCGG | -3.22 ± 0.22 | -1.57 ± 0.18
3 | CUCUAGCAAUAUUACGUGCA | -2.34 ± 0.43 | 
4 | CUGAAGCAAUAUUACGAAAU | -3.78 ± 0.27 | -2.38 ± 0.25
5 | CUGAAGCAAUAUUACGACCC | -2.58 ± 0.38 | 
6 | CUGAAGCAAUAUUACGAGAU | -2.63 ± 0.15 | -1.57 ± 0.15
7 | CUGAAGCAAUAUUACGAGCA | -3.59 ± 0.19 | -2.01 ± 0.2
8 | CUGAAGCAAUAUUACGAGGU | -3.28 ± 0.11 | -2.41 ± 0.17
9 | CUGAAGCAAUAUUACGAUGG | -0.0919 ± 0.065 | 0.123 ± 0.095
10 | CUGAAGCAAUAUUACGCAAG | -0.812 ± 0.12 | 0.142 ± 0.18
11 | CUGAAGCAAUAUUACGCACC | -2.27 ± 0.34 | 
12 | CUGAAGCAAUAUUACGCGGA | -3.45 ± 0.16 | -1.7 ± 0.2
13 | CUGAAGCAAUAUUACGCGUA | -4.36 ± 0.36 | -1.98 ± 0.26
14 | CUGAAGCAAUAUUACGCUCG | -0.21 ± 0.086 | -0.613 ± 0.087
15 | CUGAAGCAAUAUUACGCUUG | -2.33 ± 0.13 | -1.79 ± 0.14
16 | CUGAAGCAAUAUUACGGUAC | -2.82 ± 0.18 | -2.71 ± 0.26
17 | CUGAAGCAAUAUUACGGUCU | -4.07 ± 0.36 | -2.24 ± 0.27
18 | CUGAAGCAAUAUUACGGUGU | -3.3 ± 0.1 | -2.95 ± 0.12
19 | CUGAAGCAAUAUUACGUAAG | -0.797 ± 0.08 | 0.0174 ± 0.086
20 | CUGAAGCAAUAUUACGUAUU | -3.86 ± 0.22 | -2.85 ± 0.3
21 | CUGAAGCAAUAUUACGUGAG | -0.269 ± 0.044 | 0.305 ± 0.065
22 | CUGAAGCAAUAUUACGUGCC |  | -1.64 ± 0.49
23 | CUGAAGCAAUAUUACGUUUA | -3.97 ± 0.24 | 
24 | CUGAAGCAAUAUUACGUUUC | -2.72 ± 0.41 | 
25 | CUGCAGCAAUAUUACGACAC | -3.35 ± 0.23 | -3.61 ± 0.33
26 | CUGCAGCAAUAUUACGACUC | -3.27 ± 0.26 | -1.98 ± 0.27

Row | Sequence | self-splicing fitness (ln) (30 °C) | self-splicing fitness (ln) (37 °C)
27 | CUGCAGCAAUAUUACGACUU | -2.66 ± 0.14 | -2.25 ± 0.17
28 | CUGCAGCAAUAUUACGAUAG | -1.16 ± 0.11 | -0.167 ± 0.12
29 | CUGCAGCAAUAUUACGCCGA |  | -2.61 ± 0.36
30 | CUGCAGCAAUAUUACGCCGC |  | -2.23 ± 0.45
31 | CUGCAGCAAUAUUACGCGCA | -3.37 ± 0.15 | -2.13 ± 0.15
32 | CUGCAGCAAUAUUACGCGGA | -2.29 ± 0.21 | -2.21 ± 0.31
33 | CUGCAGCAAUAUUACGCUGG | -3.66 ± 0.23 | -2.64 ± 0.25
34 | CUGCAGCAAUAUUACGGACA |  | -1.44 ± 0.28
35 | CUGCAGCAAUAUUACGGACG | -0.355 ± 0.14 | 0.179 ± 0.15
36 | CUGCAGCAAUAUUACGGAUG | -1.16 ± 0.061 | -0.415 ± 0.081
37 | CUGCAGCAAUAUUACGGCCU | -3.23 ± 0.17 | -1.56 ± 0.15
38 | CUGCAGCAAUAUUACGGUGU | -4.57 ± 0.36 | -2.37 ± 0.24
39 | CUGCAGCAAUAUUACGUAGG | -0.76 ± 0.057 | -0.512 ± 0.07
40 | CUGCAGCAAUAUUACGUGAA | -4.94 ± 0.45 | -3.45 ± 0.23
41 | CUGCAGCAAUAUUACGUGCG | -1.67 ± 0.093 | -1.26 ± 0.11
42 | CUGCAGCAAUAUUACGUUAA | -3.5 ± 0.24 | -3.02 ± 0.27
43 | CUGCAGCAAUAUUACGUUGC | -3.71 ± 0.26 | -2.18 ± 0.29
44 | CUGGAGCAAUAUUACGAACA | -2.85 ± 0.42 | -1.64 ± 0.48
45 | CUGGAGCAAUAUUACGACUC |  | -2.39 ± 0.41
46 | CUGGAGCAAUAUUACGAGAC |  | -0.723 ± 0.29
47 | CUGGAGCAAUAUUACGAGAU | -4.02 ± 0.39 | -2.49 ± 0.44
48 | CUGGAGCAAUAUUACGAGUA | -2.08 ± 0.26 | -3.21 ± 0.35
49 | CUGGAGCAAUAUUACGCAGC | -3.72 ± 0.49 | -0.0349 ± 0.47
50 | CUGGAGCAAUAUUACGCCGC |  | -1.1 ± 0.38
51 | CUGGAGCAAUAUUACGCGAU | -2.76 ± 0.16 | -1.9 ± 0.15
52 | CUGGAGCAAUAUUACGCUAG |  | -2.79 ± 0.36

Row | Sequence | self-splicing fitness (ln) (30 °C) | self-splicing fitness (ln) (37 °C)
53 | CUGGAGCAAUAUUACGGCCG | -0.999 ± 0.27 | 
54 | CUGGAGCAAUAUUACGGGGU | -3.12 ± 0.31 | -1.53 ± 0.27
55 | CUGGAGCAAUAUUACGGGUU | -2.29 ± 0.18 | -2.91 ± 0.28
56 | CUGGAGCAAUAUUACGGUGA | -2.75 ± 0.24 | -3.22 ± 0.35
57 | CUGGAGCAAUAUUACGUAUG | -1.78 ± 0.12 | -0.437 ± 0.14
58 | CUGGAGCAAUAUUACGUCAA | -2.69 ± 0.44 | -1.19 ± 0.47
59 | CUGGAGCAAUAUUACGUCGG | -3.08 ± 0.26 | 
60 | CUGGAGCAAUAUUACGUCUA | -1.72 ± 0.3 | -0.483 ± 0.23
61 | CUGGAGCAAUAUUACGUUAA | -3.18 ± 0.37 | -2.05 ± 0.24
62 | CUGGAGCAAUAUUACGUUAC | -2.8 ± 0.23 | -1.42 ± 0.41
63 | CUGGAGCAAUAUUACGUUCG | -4.29 ± 0.3 | -1.77 ± 0.19
64 | CUGGAGCAAUAUUACGUUUA | -3.17 ± 0.18 | -3.28 ± 0.22
65 | CUGGAGCAAUAUUACGUUUU |  | -3.48 ± 0.42
66 | CUGUAGCAAUAUUACGAAUU |  | -2.7 ± 0.3
67 | CUGUAGCAAUAUUACGACGC | -2.3 ± 0.35 | -2.79 ± 0.27
68 | CUGUAGCAAUAUUACGCACU | -1.84 ± 0.37 | -2.25 ± 0.31
69 | CUGUAGCAAUAUUACGCGGU | -3.17 ± 0.23 | -2.33 ± 0.24
70 | CUGUAGCAAUAUUACGCGUC |  | -2.41 ± 0.45
71 | CUGUAGCAAUAUUACGCGUU | -4.19 ± 0.3 | -2.26 ± 0.18
72 | CUGUAGCAAUAUUACGCUCU | -3.47 ± 0.39 | 
73 | CUGUAGCAAUAUUACGCUGA | -1.34 ± 0.16 | -3.78 ± 0.29
74 | CUGUAGCAAUAUUACGCUGG |  | -0.992 ± 0.34
75 | CUGUAGCAAUAUUACGGAGG | -4.1 ± 0.27 | -2.64 ± 0.26
76 | CUGUAGCAAUAUUACGGAUG | -3.23 ± 0.27 | -0.812 ± 0.18
77 | CUGUAGCAAUAUUACGGUAC |  | -2.59 ± 0.28
78 | CUGUAGCAAUAUUACGGUGG | -3.05 ± 0.14 | -1.49 ± 0.11

Row | Sequence | self-splicing fitness (ln) (30 °C) | self-splicing fitness (ln) (37 °C)
79 | CUGUAGCAAUAUUACGUAGC | -5.54 ± 0.36 | -2.93 ± 0.32
80 | CUGUAGCAAUAUUACGUAUA | -3.03 ± 0.4 | -2.67 ± 0.28
81 | CUGUAGCAAUAUUACGUCAC | -3.21 ± 0.24 | 
82 | CUGUAGCAAUAUUACGUCAU | -4.07 ± 0.3 | -3.14 ± 0.24
83 | CUGUAGCAAUAUUACGUGUU | -4.29 ± 0.17 | -0.79 ± 0.13
84 | CUUAAGCAAUAUUACGAACG | -0.163 ± 0.11 | 0.187 ± 0.14
85 | CUUAAGCAAUAUUACGACCU | -1.75 ± 0.39 | 
86 | CUUAAGCAAUAUUACGCAUU | -3.82 ± 0.2 | -1.92 ± 0.17
87 | CUUAAGCAAUAUUACGCGAG | -4.13 ± 0.34 | -3.57 ± 0.33
88 | CUUAAGCAAUAUUACGCUCA | -2.78 ± 0.22 | -2.01 ± 0.5
89 | CUUAAGCAAUAUUACGCUUG | -4.19 ± 0.39 | -2.78 ± 0.31
90 | CUUAAGCAAUAUUACGCUUU | -3.13 ± 0.11 | -2.26 ± 0.15
91 | CUUAAGCAAUAUUACGGACC |  | -0.536 ± 0.36
92 | CUUAAGCAAUAUUACGGCCA | -2.95 ± 0.44 | 
93 | CUUAAGCAAUAUUACGGUUC | -4.11 ± 0.19 | -3.1 ± 0.26
94 | CUUAAGCAAUAUUACGUGAU | -2.63 ± 0.092 | -0.627 ± 0.093
95 | CUUAAGCAAUAUUACGUUGA |  | -2.78 ± 0.29
96 | CUUCAGCAAUAUUACGAACC | -1.67 ± 0.41 | -1.18 ± 0.35
97 | CUUCAGCAAUAUUACGAAUC | -1.04 ± 0.2 | -1.06 ± 0.19
98 | CUUCAGCAAUAUUACGACAA | -2.42 ± 0.21 | -2.52 ± 0.31
99 | CUUCAGCAAUAUUACGACGG | -2.16 ± 0.13 | -0.57 ± 0.23
100 | CUUCAGCAAUAUUACGAGCA |  | -2.16 ± 0.28
101 | CUUCAGCAAUAUUACGAUCU | -2.86 ± 0.39 | -2.88 ± 0.35
102 | CUUCAGCAAUAUUACGAUUA | -3.05 ± 0.41 | -1.55 ± 0.22
103 | CUUCAGCAAUAUUACGCCUU | -2.35 ± 0.15 | -3.25 ± 0.25
104 | CUUCAGCAAUAUUACGCGCC | -3.28 ± 0.3 | -1.92 ± 0.24
